Laboratory results from publication PMC5299047 (Structure (London, England : 1993), 2017).

Molecular target: the molecule itself
Experiment: SAXS

B1: Saccharomyces cerevisiae Rnt1p (intact protein) (enzyme, UniProt Q02555 1-471, looked up)
chain: MGSKVAGKKKTQNDNKLDNENGSQQRENINTKTLLKGNLKISNYKYLEVIQLEHAVTKLVESYNKIIELSPNLVAYNEAVNNQDRVPVQILPSLSRYQLKLAAELKTLHDLKKDAILTEITDYENEFDTEQKQPILQEISKADMEKLEKLEQVKREKREKIDVNVYENLNEKEDEEEDEGEDSYDPTKAGDIVKATKWPPKLPEIQDLAIRARVFIHKSTIKDKVYLSGSEMINAHNERLEFLGDSILNSVMTLIIYNKFPDYSEGQLSTLRMNLVSNEQIKQWSIMYNFHEKLKTNFDLKDENSNFQNGKLKLYADVFEAYIGGLMEDDPRNNLPKIRKWLRKLAKPVIEEATRNQVALEKTDKLDMNAKRQLYSLIGYASLRLHYVTVKKPTAVDPNSIVECRVGDGTVLGTGVGRNIKIAGIRAAENALRDKKMLDFYAKQRAAIPRSESVLKDPSQKNKKRKFSDTS
stoichiometry N: 2
